Source: patent publication US20210300987A1 (published 2021)

Key:
[1] = molecular target: HA-1^R-peptide (…) loaded on HLA-A*02:01 encoded molecules on T2 cells (human); test: cell-based or functional assay
[2] = molecular target: T1, Astn1 P1268L (control peptide) peptide on HLA-A*02:01 (human); test: cytokine release
T1 peptide: KLYGLDWAEL

[3] = molecular target: T2, HA-1^H (minor histocompatibility antigen 1, HMHA1 gene, H allele) peptide on HLA-A*02:01 (human); test: multimer staining
T2 peptide: VLHDDLLEA
Description: Transduced CD8 T cells were enriched by FACS using the murine constant beta region as a marker for transduction. After expansion of these cells, they were stained with an HA-1^H-MHC-multimer and antibodies against CD8 and the murine constant beta region (mCb) and analyzed by flow cytometry.
The nucleotide sequences of the isolated TCRs were codon optimized using the GeneOptimizer™ algorithm (ThermoFisher) and the constant regions were murinized. Codon optimized and murinized TCRs were used for all further experiments described herein. They were stained with an HA-1^H-MHC-multimer (immunAware) and antibodies against CD8 and the murine constant beta region. […] (FIG. 1)

[4] = molecular target: T3, HA-1^R (minor histocompatibility antigen 1, HMHA1 gene, R allele) peptide on HLA-A*02:01 (human); test: cytokine release
T3 peptide: VLRDDLLEA

[5] = molecular target: T2, HA-1^H (minor histocompatibility …); test: killing

B1: TCR_1, P01849 1-136 (TCR, not shown: a dimerising Fc or GST)
TCR alpha: GENVEQHPSTLSVQEGDSAVIKCTYSDSASNYFPWYKQELGKGPQLIIDIRSNVGEKKDQRIAVTLNKTAKHFSLHITETQPEDSAVYFCAASDLNFGKGTSLLVTPHIQNPEPAVYQLKDPRSQDSTLCLFTDFDSQINVPKTMESGTFITDKTVLDMKAMDSKSNGAIAWSNQTSFTCQDIFKETNATYPSSDVPCDATLTEKSFETDMNLNFQNLSVMGLRILLLKVAGFNLLMTLRLWSS
TCR beta: DTGVSQNPRHKITKRGQNVTFRCDPISEHNRLYWYRQTLGQGPEFLTYFQNEAQLEKSRLLSDRFSAERPKGSFSTLEIQRTEQGDSAMYLCASSLVSRVDGYTFGSGTRLTVVE
[1]
  peptide concentration needed for recognition (IFN-γ release), relative to HA-1^H: > 10000 times

B2: TCR_2, P01849 1-136 (TCR, not shown: a dimerising Fc or GST)
TCR alpha: GENVEQHPSTLSVQEGDSAVIKCTYSDSASNYFPWYKQELGKGPQLIIDIRSNVGEKKDQRIAVTLNKTAKHFSLHITETQPEDSAVYFCAAHTPGYSTLTFGKGTMLLVSPDIQNPEPAVYQLKDPRSQDSTLCLFTDFDSQINVPKTMESGTFITDKTVLDMKAMDSKSNGAIAWSNQTSFTCQDIFKETNATYPSSDVPCDATLTEKSFETDMNLNFQNLSVMGLRILLLKVAGFNLLMTLRLWSS
TCR beta: DTGVSQNPRHKITKRGQNVTFRCDPISEHNRLYWYRQTLGQGPEFLTYFQNEAQLEKSRLLSDRFSAERPKGSFSTLEIQRTEQGDSAMYLCASSPRAGGETQYFGPGTRLLVLE
[1]
  peptide concentration needed for recognition (IFN-γ release), relative to HA-1^H: > 10000 times

B3: TCR_3, P01849 1-136 (TCR, not shown: a dimerising Fc or GST)
TCR alpha: SQQGEEDPQALSIQEGENATMNCSYKTSINNLQWYRQNSGRGLVHLILIRSNEREKHSGRLRVTLDTSKKSSSLLITASRAADTASYFCATGDQTGANNLFFGTGTRLTVIPYIQNPEPAVYQLKDPRSQDSTLCLFTDFDSQINVPKTMESGTFITDKTVLDMKAMDSKSNGAIAWSNQTSFTCQDIFKETNATYPSSDVPCDATLTEKSFETDMNLNFQNLSVMGLRILLLKVAGFNLLMTLRLWSS
TCR beta: DTGVSQNPRHKITKRGQNVTFRCDPISEHNRLYWYRQTLGQGPEFLTYFQNEAQLEKSRLLSDRFSAERPKGSFSTLEIQRTEQGDSAMYLCASSLTRTEKLFFGSGTQLSVLE
[1]
  peptide concentration needed for recognition (IFN-γ release), relative to HA-1^H: > 10000 times

B4: TCR_4, P01849 1-136 (TCR, not shown: a dimerising Fc or GST)
TCR alpha: GENVEQHPSTLSVQEGDSAVIKCTYSDSASNYFPWYKQELGKGPQLIIDIRSNVGEKKDQRIAVTLNKTAKHFSLHITETQPEDSAVYFCAGRGKLTFGTGTRLTIIPNIQNPEPAVYQLKDPRSQDSTLCLFTDFDSQINVPKTMESGTFITDKTVLDMKAMDSKSNGAIAWSNQTSFTCQDIFKETNATYPSSDVPCDATLTEKSFETDMNLNFQNLSVMGLRILLLKVAGFNLLMTLRLWSS
TCR beta: DTGVSQNPRHKITKRGQNVTFRCDPISEHNRLYWYRQTLGQGPEFLTYFQNEAQLEKSRLLSDRFSAERPKGSFSTLEIQRTEQGDSAMYLCASSLVRDEKLFFGSGTQLSVLE
[1]
  peptide concentration needed for recognition (IFN-γ release), relative to HA-1^H: > 10000 times

B5: TCR_5, P01849 1-136 (TCR, not shown: a dimerising Fc or GST)
TCR alpha: TQLLEQSPQFLSIQEGENLTVYCNSSSVFSSLQWYRQEPGEGPVLLVTVVTGGEVKKLKRLTFQFGDARKDSSLHITAAQTGDTGLYLCAGAGNNDMRFGAGTRLTVKPNIQNPEPAVYQLKDPRSQDSTLCLFTDFDSQINVPKTMESGTFITDKTVLDMKAMDSKSNGAIAWSNQTSFTCQDIFKETNATYPSSDVPCDATLTEKSFETDMNLNFQNLSVMGLRILLLKVAGFNLLMTLRLWSS
TCR beta: DTGVSQNPRHKITKRGQNVTFRCDPISEHNRLYWYRQTLGQGPEFLTYFQNEAQLEKSRLLSDRFSAERPKGSFSTLEIQRTEQGDSAMYLCASSLVRGIEAFFGQGTRLTVVE
[1]
  peptide concentration needed for recognition (IFN-γ release), relative to HA-1^H: > 10000 times

B6: TCR_6, P01849 1-136 (TCR, not shown: a dimerising Fc or GST)
TCR alpha: RGEDVEQSLFLSVREGDSSVINCTYTDSSSTYLYWYKQEPGAGLQLLTYIFSNMDMKQDQRLTVLLNKKDKHLSLRIADTQTGDSAIYFCAEKWIIFGKGTRLHILPNIQNPEPAVYQLKDPRSQDSTLCLFTDFDSQINVPKTMESGTFITDKTVLDMKAMDSKSNGAIAWSNQTSFTCQDIFKETNATYPSSDVPCDATLTEKSFETDMNLNFQNLSVMGLRILLLKVAGFNLLMTLRLWSS
TCR beta: DTGVSQNPRHKITKRGQNVTFRCDPISEHNRLYWYRQTLGQGPEFLTYFQNEAQLEKSRLLSDRFSAERPKGSFSTLEIQRTEQGDSAMYLCASSLTTPDGYTFGSGTRLTVVE
[1]
  peptide concentration needed for recognition (IFN-γ release), relative to HA-1^H: > 10000 times

B7: TCR_1 (TCR, V domains shown)
Valpha: GENVEQHPSTLSVQEGDSAVIKCTYSDSASNYFPWYKQELGKGPQLIIDIRSNVGEKKDQRIAVTLNKTAKHFSLHITETQPEDSAVYFCAASDLNFGKGTSLLVTP
Vbeta: DTGVSQNPRHKITKRGQNVTFRCDPISEHNRLYWYRQTLGQGPEFLTYFQNEAQLEKSRLLSDRFSAERPKGSFSTLEIQRTEQGDSAMYLCASSLVSRVDGYTFGSGTRLTVV
[2]
  binding result: no recognition
[3]
  binding result: recognises

B8: TCR_2 (TCR, V domains shown)
Valpha: GENVEQHPSTLSVQEGDSAVIKCTYSDSASNYFPWYKQELGKGPQLIIDIRSNVGEKKDQRIAVTLNKTAKHFSLHITETQPEDSAVYFCAAHTPGYSTLTFGKGTMLLVSP
Vbeta: DTGVSQNPRHKITKRGQNVTFRCDPISEHNRLYWYRQTLGQGPEFLTYFQNEAQLEKSRLLSDRFSAERPKGSFSTLEIQRTEQGDSAMYLCASSPRAGGETQYFGPGTRLLVL
[4]
  binding result: no recognition
[2]
  binding result: no recognition
[3]
  binding result: recognises

B9: TCR_3 (TCR, V domains shown)
Valpha: SQQGEEDPQALSIQEGENATMNCSYKTSINNLQWYRQNSGRGLVHLILIRSNEREKHSGRLRVTLDTSKKSSSLLITASRAADTASYFCATGDQTGANNLFFGTGTRLTVIP
Vbeta: DTGVSQNPRHKITKRGQNVTFRCDPISEHNRLYWYRQTLGQGPEFLTYFQNEAQLEKSRLLSDRFSAERPKGSFSTLEIQRTEQGDSAMYLCASSLTRTEKLFFGSGTQLSVL
[2]
  binding result: no recognition
[3]
  binding result: recognises

B10: TCR_4 (TCR, V domains shown)
Valpha: GENVEQHPSTLSVQEGDSAVIKCTYSDSASNYFPWYKQELGKGPQLIIDIRSNVGEKKDQRIAVTLNKTAKHFSLHITETQPEDSAVYFCAGRGKLTFGTGTRLTIIP
Vbeta: DTGVSQNPRHKITKRGQNVTFRCDPISEHNRLYWYRQTLGQGPEFLTYFQNEAQLEKSRLLSDRFSAERPKGSFSTLEIQRTEQGDSAMYLCASSLVRDEKLFFGSGTQLSVL
[2]
  binding result: no recognition
[3]
  binding result: recognises

B11: TCR_5 (TCR, V domains shown)
Valpha: TQLLEQSPQFLSIQEGENLTVYCNSSSVFSSLQWYRQEPGEGPVLLVTVVTGGEVKKLKRLTFQFGDARKDSSLHITAAQTGDTGLYLCAGAGNNDMRFGAGTRLTVKP
Vbeta: DTGVSQNPRHKITKRGQNVTFRCDPISEHNRLYWYRQTLGQGPEFLTYFQNEAQLEKSRLLSDRFSAERPKGSFSTLEIQRTEQGDSAMYLCASSLVRGIEAFFGQGTRLTVV
[2]
  binding result: no recognition
[3]
  binding result: recognises

B12: TCR_6 (TCR, V domains shown)
Valpha: GEDVEQSLFLSVREGDSSVINCTYTDSSSTYLYWYKQEPGAGLQLLTYIFSNMDMKQDQRLTVLLNKKDKHLSLRIADTQTGDSAIYFCAEKWIIFGKGTRLHILP
Vbeta: DTGVSQNPRHKITKRGQNVTFRCDPISEHNRLYWYRQTLGQGPEFLTYFQNEAQLEKSRLLSDRFSAERPKGSFSTLEIQRTEQGDSAMYLCASSLTTPDGYTFGSGTRLTVV
[2]
  binding result: no recognition
[5]
  binding result: recognises
